Assay [1] has as its target human uPAR displayed on the surface of MDA-MB-231 cells (human) (UniProt Q03405). Put plainly: flow cytometry (FACS) on MDA-MB-231 cells; isotype control.
Assay [2] shares this target. The assay is described as follows: cell-based or functional assay.

Chain of human uPAR displayed on the surface of MDA-MB-231 cells (human) (Q03405 23-305): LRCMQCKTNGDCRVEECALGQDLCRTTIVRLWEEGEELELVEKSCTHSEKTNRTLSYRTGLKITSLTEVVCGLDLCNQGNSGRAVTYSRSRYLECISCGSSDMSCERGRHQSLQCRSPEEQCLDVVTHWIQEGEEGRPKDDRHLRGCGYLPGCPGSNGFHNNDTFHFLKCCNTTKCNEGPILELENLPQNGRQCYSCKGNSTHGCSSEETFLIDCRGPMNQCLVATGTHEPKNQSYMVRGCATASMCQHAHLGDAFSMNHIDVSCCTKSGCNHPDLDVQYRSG

Consider human IgG1 control (antibody), for which the Cellular recognition Max % in assay [1] worked out at 155%. In assay [2], the ADCC NK-92 Max % was determined as 0.468% and the ADCC PBMCs Max % was found to be 4.8%.

The record behind these values is US20260116983A1.
